B1: Discoidin, CUB and LCCL domain-containing protein 2 (Homo sapiens), Q96PD2 (parent)
chain: MASRAVVRARRCPQCPQVRAAAAAPAWAALPLSRSLPPCSNSSSFSMPLFLLLLLVLLLLLEDAGAQQGDGCGHTVLGPESGTLTSINYPQTYPNSTVCEWEIRVKMGERVRIKFGDFDIEDSDSCHFNYLRIYNGIGVSRTEIGKYCGLGLQMNHSIESKGNEITLLFMSGIHVSGRGFLASYSVIDKQDLITCLDTASNFLEPEFSKYCPAGCLLPFAEISGTIPHGYRDSSPLCMAGVHAGVVSNTLGGQISVVISKGIPYYESSLANNVTSVVGHLSTSLFTFKTSGCYGTLGMESGVIADPQITASSVLEWTDHTGQENSWKPKKARLKKPGPPWAAFATDEYQWLQIDLNKEKKITGIITTGSTMVEHNYYVSAYRILYSDDGQKWTVYREPGVEQDKIFQGNKDYHQDVRNNFLPPIIARFIRVNPTQWQQKIAMKMELLGCQFIPKGRPPKLTQPPPPRNSNDLKNTTAPPKIAKGRAPKFTQPLQPRSSNEFPAQTEQTTASPDIRNTTVTPNVTKDVALAAVLVPVLVMVLTTLILILVCAWHWRNRKKKTEGTYDLPYWDRAGWWKGMKQFLPAKAVDHEETPVRYSSSEVNHLSPREVTTVLQADSAEYAQPLVGGIVGTLHQRSTFKPEEGKEAGYADLDPYNSPGQEVYHAYAEPLPITGPEYATPIIMDMSGHPTTSVGQPSTSTFKATGNQPPPLVGTYNTLLSRTDSCSSAQAQYDTPKAGKPGLPAPDELVYQVPQSTQEVSGAGRDGECDVFKEIL

What was measured:
crkl_human CRKL, P46109 = variants of: B1; details: with crkl_human CRKL
Sequence of crkl_human CRKL, P46109 (P46109 whole entry): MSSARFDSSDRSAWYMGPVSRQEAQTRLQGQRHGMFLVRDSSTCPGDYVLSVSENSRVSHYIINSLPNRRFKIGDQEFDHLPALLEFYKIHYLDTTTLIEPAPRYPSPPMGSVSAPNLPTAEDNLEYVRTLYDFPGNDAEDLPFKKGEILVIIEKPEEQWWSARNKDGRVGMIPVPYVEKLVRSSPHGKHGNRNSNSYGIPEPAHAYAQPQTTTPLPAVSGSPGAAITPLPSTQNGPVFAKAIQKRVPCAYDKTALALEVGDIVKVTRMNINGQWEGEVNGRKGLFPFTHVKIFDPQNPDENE

fyn_human FYN, P06241 = variants of: B1; details: with fyn_human FYN
Sequence of fyn_human FYN, P06241 (P06241 whole entry, looked up): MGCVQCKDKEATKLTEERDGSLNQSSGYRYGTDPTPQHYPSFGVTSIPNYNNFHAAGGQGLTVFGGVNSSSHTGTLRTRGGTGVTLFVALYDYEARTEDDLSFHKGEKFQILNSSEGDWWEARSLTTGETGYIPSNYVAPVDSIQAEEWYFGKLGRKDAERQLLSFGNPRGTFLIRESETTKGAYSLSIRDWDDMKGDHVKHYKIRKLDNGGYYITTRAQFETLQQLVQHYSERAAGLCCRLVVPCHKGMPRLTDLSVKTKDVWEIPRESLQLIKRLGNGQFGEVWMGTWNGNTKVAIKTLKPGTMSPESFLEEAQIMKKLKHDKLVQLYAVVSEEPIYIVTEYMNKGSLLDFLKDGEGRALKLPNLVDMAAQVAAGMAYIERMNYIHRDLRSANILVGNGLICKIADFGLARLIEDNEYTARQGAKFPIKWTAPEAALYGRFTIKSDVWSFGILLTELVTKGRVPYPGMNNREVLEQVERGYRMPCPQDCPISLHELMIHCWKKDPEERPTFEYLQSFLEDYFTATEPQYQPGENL

For Y565F, the “effect of a mutation on the interaction” value (crkl_human CRKL, P46109) was “disrupting interaction” and the “effect of a mutation on the interaction” value (fyn_human FYN, P06241) was “disrupting interaction”.

For Y655F, the “effect of a mutation on the interaction” value (crkl_human CRKL, P46109) was “disrupting interaction” and the “effect of a mutation on the interaction” value (fyn_human FYN, P06241) was “disrupting interaction”.

With Y677F the “effect of a mutation on the interaction” value (crkl_human CRKL, P46109) was “disrupting interaction” and the “effect of a mutation on the interaction” value (fyn_human FYN, P06241) was “disrupting interaction”.

In the case of Y666F, the “effect of a mutation on the interaction” value (crkl_human CRKL, P46109) is reported as “disrupting interaction” and the “effect of a mutation on the interaction” value (fyn_human FYN, P06241) is reported as “disrupting interaction”.

In the case of Y621F, the “effect of a mutation on the interaction” value (crkl_human CRKL, P46109) is reported as “disrupting interaction” and the “effect of a mutation on the interaction” value (fyn_human FYN, P06241) is reported as “disrupting interaction”.

For Y732F, the “effect of a mutation on the interaction” value (crkl_human CRKL, P46109) was “disrupting interaction” and the “effect of a mutation on the interaction” value (fyn_human FYN, P06241) was “disrupting interaction”.

Y750F was tested, and the “effect of a mutation on the interaction” value (crkl_human CRKL, P46109) was “disrupting interaction” and the “effect of a mutation on the interaction” value (fyn_human FYN, P06241) was “disrupting interaction”.

— IntAct's records for PubMed 23770091
